Experimental data taken from PMC12310515.

Biological target: RBK21 variable region (residues 148-299) (P. falciparum (field isolate Lek174))
Experiment: SPR

Chain of KIR2DL1 (residues 27-221) (P43626 27-221): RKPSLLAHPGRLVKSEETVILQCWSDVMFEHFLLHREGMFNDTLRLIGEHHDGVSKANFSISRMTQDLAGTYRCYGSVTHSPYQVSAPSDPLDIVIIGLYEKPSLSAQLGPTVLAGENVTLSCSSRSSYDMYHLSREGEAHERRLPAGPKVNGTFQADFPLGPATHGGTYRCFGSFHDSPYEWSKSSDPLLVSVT
Chain of KIR2DS1 (SPR protein) (Q14954 22-245): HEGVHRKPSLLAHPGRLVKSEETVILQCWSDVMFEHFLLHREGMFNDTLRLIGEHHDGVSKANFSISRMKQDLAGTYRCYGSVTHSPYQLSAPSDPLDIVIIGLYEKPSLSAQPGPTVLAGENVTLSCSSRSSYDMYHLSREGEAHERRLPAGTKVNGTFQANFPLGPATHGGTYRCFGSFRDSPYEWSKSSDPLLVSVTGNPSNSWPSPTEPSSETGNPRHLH

| Substance | Kd |
| --- | --- |
| KIR2DL1 (residues 27-221) (from UniProt P43626 27-221) (domain or fragment) | 500 nM |
| KIR2DS1 (SPR protein) (from UniProt Q14954) (receptor) | 1700 nM |
